The values that follow come from the Human Domainome abundance scans (Beltran et al. 2025).

± gives the uncertainty stated by the source.

The nature of the series: abundance fitness (aPCA) (normalised: wild type 0, dead -1); higher = more abundant; growth selection in yeast, the domain comes from the species named. The following applies: Homo sapiens.
Substance “NEDD4-like E3 ubiquitin-protein ligase WWP2 F462A, O00308” showed an abundance fitness of -1.02 ± 0.067.

“NEDD4-like E3 ubiquitin-protein ligase WWP2 F462C, O00308”: the abundance fitness was -0.88 ± 0.054.

“NEDD4-like E3 ubiquitin-protein ligase WWP2 F462D, O00308” displayed an abundance fitness of -0.675 ± 0.084.

For the substance “NEDD4-like E3 ubiquitin-protein ligase WWP2 F462G, O00308”, the abundance fitness was -0.8 ± 0.054.

On to “NEDD4-like E3 ubiquitin-protein ligase WWP2 F462I, O00308”, for which the abundance fitness was -1.03 ± 0.16.

Regarding “NEDD4-like E3 ubiquitin-protein ligase WWP2 F462K, O00308”, the abundance fitness is -0.789 ± 0.16.

On to “NEDD4-like E3 ubiquitin-protein ligase WWP2 F462L, O00308”, for which the abundance fitness is -0.9 ± 0.061.

The substance “NEDD4-like E3 ubiquitin-protein ligase WWP2 F462M, O00308” displayed an abundance fitness of -0.66 ± 0.08.

Regarding “NEDD4-like E3 ubiquitin-protein ligase WWP2 F462N, O00308”, the abundance fitness was -0.945 ± 0.082.

Take “NEDD4-like E3 ubiquitin-protein ligase WWP2 F462P, O00308”: the abundance fitness is -0.605 ± 0.099.

Turning to “NEDD4-like E3 ubiquitin-protein ligase WWP2 F462Q, O00308”, the abundance fitness was -1.02 ± 0.16.

For the substance “NEDD4-like E3 ubiquitin-protein ligase WWP2 F462R, O00308”, the abundance fitness is -0.851 ± 0.046.

“NEDD4-like E3 ubiquitin-protein ligase WWP2 F462S, O00308” showed an abundance fitness of -1.04 ± 0.051.

For “NEDD4-like E3 ubiquitin-protein ligase WWP2 F462T, O00308”, the abundance fitness was -0.87 ± 0.16.

Substance “NEDD4-like E3 ubiquitin-protein ligase WWP2 F462V, O00308” had an abundance fitness of -0.939 ± 0.037.

As for “NEDD4-like E3 ubiquitin-protein ligase WWP2 F462W, O00308”, the abundance fitness is -0.152 ± 0.066.

Take “NEDD4-like E3 ubiquitin-protein ligase WWP2 F462Y, O00308”: the abundance fitness is -0.048 ± 0.081.

Substance “NEDD4-like E3 ubiquitin-protein ligase WWP2 F472A, O00308” displayed an abundance fitness of -0.373 ± 0.052.

Substance “NEDD4-like E3 ubiquitin-protein ligase WWP2 F472C, O00308” returned an abundance fitness of -0.48 ± 0.067.

Consider “NEDD4-like E3 ubiquitin-protein ligase WWP2 F472D, O00308”, for which the abundance fitness is -0.319 ± 0.072.

Turning to “NEDD4-like E3 ubiquitin-protein ligase WWP2 F472E, O00308”, the abundance fitness was -0.357 ± 0.061.

With “NEDD4-like E3 ubiquitin-protein ligase WWP2 F472H, O00308”, the abundance fitness is -0.291 ± 0.033.

Turning to “NEDD4-like E3 ubiquitin-protein ligase WWP2 F472I, O00308”, the abundance fitness was -0.495 ± 0.082.

On to “NEDD4-like E3 ubiquitin-protein ligase WWP2 F472K, O00308”, for which the abundance fitness was -0.355 ± 0.07.

Substance “NEDD4-like E3 ubiquitin-protein ligase WWP2 F472L, O00308” showed an abundance fitness of -0.289 ± 0.052.

Substance “NEDD4-like E3 ubiquitin-protein ligase WWP2 F472N, O00308” registered an abundance fitness of -0.373 ± 0.053.

The substance “NEDD4-like E3 ubiquitin-protein ligase WWP2 F472Q, O00308” had an abundance fitness of -0.402 ± 0.045.

“NEDD4-like E3 ubiquitin-protein ligase WWP2 F472S, O00308” had an abundance fitness of -0.351 ± 0.048.

Substance “NEDD4-like E3 ubiquitin-protein ligase WWP2 F472T, O00308” displayed an abundance fitness of -0.15 ± 0.065.

In the case of “NEDD4-like E3 ubiquitin-protein ligase WWP2 F472V, O00308”, the abundance fitness is -0.392 ± 0.044.

As to “NEDD4-like E3 ubiquitin-protein ligase WWP2 F472W, O00308”, the abundance fitness was -0.129 ± 0.05.

As for “NEDD4-like E3 ubiquitin-protein ligase WWP2 F472Y, O00308”, the abundance fitness is -0.025 ± 0.057.

Turning to “NEDD4-like E3 ubiquitin-protein ligase WWP2 F479C, O00308”, the abundance fitness was -0.054 ± 0.046.

“NEDD4-like E3 ubiquitin-protein ligase WWP2 F479D, O00308” showed an abundance fitness of 0.02 ± 0.072.

In turn, “NEDD4-like E3 ubiquitin-protein ligase WWP2 F479E, O00308” had an abundance fitness of 0.027 ± 0.049.

For the substance “NEDD4-like E3 ubiquitin-protein ligase WWP2 F479G, O00308”, the abundance fitness came to 0.017 ± 0.04.

Substance “NEDD4-like E3 ubiquitin-protein ligase WWP2 F479H, O00308” yielded an abundance fitness of -0.036 ± 0.083.

“NEDD4-like E3 ubiquitin-protein ligase WWP2 F479I, O00308” yielded an abundance fitness of -0.086 ± 0.07.

“NEDD4-like E3 ubiquitin-protein ligase WWP2 F479K, O00308” had an abundance fitness of -0.015 ± 0.051.

“NEDD4-like E3 ubiquitin-protein ligase WWP2 F479L, O00308” showed an abundance fitness of -0.054 ± 0.049.

In turn, “NEDD4-like E3 ubiquitin-protein ligase WWP2 F479P, O00308” yielded an abundance fitness of -0.003 ± 0.054.

“NEDD4-like E3 ubiquitin-protein ligase WWP2 F479Q, O00308” gave an abundance fitness of -0.082 ± 0.053.

As to “NEDD4-like E3 ubiquitin-protein ligase WWP2 F479R, O00308”, the abundance fitness is -0.046 ± 0.049.

“NEDD4-like E3 ubiquitin-protein ligase WWP2 F479S, O00308” showed an abundance fitness of -0.013 ± 0.042.

Consider “NEDD4-like E3 ubiquitin-protein ligase WWP2 F479T, O00308”, for which the abundance fitness was 0.025 ± 0.061.

Regarding “NEDD4-like E3 ubiquitin-protein ligase WWP2 F479V, O00308”, the abundance fitness was -0.004 ± 0.04.

Turning to “NEDD4-like E3 ubiquitin-protein ligase WWP2 F479W, O00308”, the abundance fitness is -0.103 ± 0.058.

Consider “NEDD4-like E3 ubiquitin-protein ligase WWP2 F479Y, O00308”, for which the abundance fitness is -0.18 ± 0.08.

“NEDD4-like E3 ubiquitin-protein ligase WWP2 G449A, O00308” had an abundance fitness of -0.269 ± 0.049.

Turning to “NEDD4-like E3 ubiquitin-protein ligase WWP2 G449C, O00308”, the abundance fitness is -0.668 ± 0.076.

“NEDD4-like E3 ubiquitin-protein ligase WWP2 G449D, O00308” registered an abundance fitness of -0.127 ± 0.044.

“NEDD4-like E3 ubiquitin-protein ligase WWP2 G449E, O00308” yielded an abundance fitness of -0.167 ± 0.053.

For “NEDD4-like E3 ubiquitin-protein ligase WWP2 G449F, O00308”, the abundance fitness was -0.163 ± 0.052.

On to “NEDD4-like E3 ubiquitin-protein ligase WWP2 G449H, O00308”, for which the abundance fitness is -0.274 ± 0.087.

“NEDD4-like E3 ubiquitin-protein ligase WWP2 G449I, O00308” came in with an abundance fitness of -1.09 ± 0.18.

The substance “NEDD4-like E3 ubiquitin-protein ligase WWP2 G449L, O00308” gave an abundance fitness of -0.174 ± 0.038.

“NEDD4-like E3 ubiquitin-protein ligase WWP2 G449M, O00308” returned an abundance fitness of -0.11 ± 0.042.

In turn, “NEDD4-like E3 ubiquitin-protein ligase WWP2 G449N, O00308” registered an abundance fitness of 0.119 ± 0.065.

Regarding “NEDD4-like E3 ubiquitin-protein ligase WWP2 G449P, O00308”, the abundance fitness is -0.937 ± 0.11.

On to “NEDD4-like E3 ubiquitin-protein ligase WWP2 G449Q, O00308”, for which the abundance fitness is -0.107 ± 0.064.

Consider “NEDD4-like E3 ubiquitin-protein ligase WWP2 G449R, O00308”, for which the abundance fitness was -0.14 ± 0.047.

Turning to “NEDD4-like E3 ubiquitin-protein ligase WWP2 G449S, O00308”, the abundance fitness is -0.17 ± 0.029.

“NEDD4-like E3 ubiquitin-protein ligase WWP2 G449V, O00308” showed an abundance fitness of -0.679 ± 0.035.

“NEDD4-like E3 ubiquitin-protein ligase WWP2 G449W, O00308” showed an abundance fitness of -0.283 ± 0.053.

Consider “NEDD4-like E3 ubiquitin-protein ligase WWP2 G449Y, O00308”, for which the abundance fitness is -0.205 ± 0.067.

For “NEDD4-like E3 ubiquitin-protein ligase WWP2 G458A, O00308”, the abundance fitness was -0.202 ± 0.059.

Turning to “NEDD4-like E3 ubiquitin-protein ligase WWP2 G458C, O00308”, the abundance fitness was -0.193 ± 0.051.

Take “NEDD4-like E3 ubiquitin-protein ligase WWP2 G458D, O00308”: the abundance fitness was -0.343 ± 0.079.

Regarding “NEDD4-like E3 ubiquitin-protein ligase WWP2 G458E, O00308”, the abundance fitness is -0.367 ± 0.063.

The substance “NEDD4-like E3 ubiquitin-protein ligase WWP2 G458F, O00308” yielded an abundance fitness of -0.539 ± 0.1.

In the case of “NEDD4-like E3 ubiquitin-protein ligase WWP2 G458H, O00308”, the abundance fitness was -0.234 ± 0.068.

On to “NEDD4-like E3 ubiquitin-protein ligase WWP2 G458I, O00308”, for which the abundance fitness was -1.18 ± 0.19.

The substance “NEDD4-like E3 ubiquitin-protein ligase WWP2 G458K, O00308” gave an abundance fitness of -0.049 ± 0.045.

“NEDD4-like E3 ubiquitin-protein ligase WWP2 G458L, O00308” displayed an abundance fitness of -0.283 ± 0.041.

As for “NEDD4-like E3 ubiquitin-protein ligase WWP2 G458M, O00308”, the abundance fitness is -0.148 ± 0.041.

For the substance “NEDD4-like E3 ubiquitin-protein ligase WWP2 G458N, O00308”, the abundance fitness was -0.308 ± 0.093.

Turning to “NEDD4-like E3 ubiquitin-protein ligase WWP2 G458P, O00308”, the abundance fitness is -1.03 ± 0.064.

Turning to “NEDD4-like E3 ubiquitin-protein ligase WWP2 G458Q, O00308”, the abundance fitness was -0.244 ± 0.064.

“NEDD4-like E3 ubiquitin-protein ligase WWP2 G458R, O00308” yielded an abundance fitness of -0.139 ± 0.046.
